Assay results reported in patent US20200246383A1 (REGENTS OF THE UNIVERSITY OF MINNESOTA, published 2020).

Key:
[1] = molecular target: T1, recombinant human dipeptidyl peptidase IV (hDPP-IV), biotinylated (human, UniProt P27487 29-766, limits assumed, biotinylated); assay: ELISA: B12 IgG 0.1 to 500 nM on biotinylated hDPP-IV captured on streptavidin-coated wells; detection with peroxidase anti-human IgG mAb; OD 450nm
T1 construct: also called human DPP-IV
Procedure: FIG. 2A-FIG. 2E show in vitro characterization of the anti-FAP monoclonal antibody B12 immunoglobulin G (IgG). FIG. 2A. B12 IgG specificity for human fibroblast activation protein alpha (hFAP) (circle), mouse fibroblast activation protein alpha (mFAP) (square), and the homologous protease human dipeptidyl peptidase IV (hDPP-IV) (triangle) was determined by enzyme-linked immunosorbent assay (ELISA). B12 IgG was serial-diluted from 500 nM to 0.1 nM and added to protein coated wells. B12 IgG binding was detected by a peroxidase conjugated […] monoclonal antibody. FIG. 2B. […] FIG. 2C. B12 IgG binding to membrane-bound FAP was analyzed by flow cytometry. […] Unstained cells (blue line) were used as a negative control. FIG. 2D. mRNA levels of hDPP-IV were investigated by quantitative RT-PCR in prostate (R1-EnzR, R1-EnzR^FAP, PC3) and colon (Caco2) cancer cells. mRNA fold change is normalized to R1-EnzR. **p 0.01. FIG. 2E.
Dilution ELISA: A MaxiSorp plate was coated and blocked as described above. 50 μL of biotinylated human FAP, murine FAP, or human DPP-IV ([…] in PBS, 1% BSA, 0.005% Tween20) was added to 8 sets of triplicate wells each. […] B12 IgG binding was detected with a 1:1000 dilution of anti-human IgG monoclonal antibody conjugated to peroxidase (sc-2769, Santa Cruz Biotechnology, Dallas, Tex.) in PBS, 1% BSA.

[2] = molecular target: T2, human dipeptidyl peptidase IV expressed on cells (PC3 and CaCo2 cells) (human, UniProt P27487 1-766); assay: flow cytometry, Alexa Fluor 488 conjugated B12 IgG on hDPP-IV-expressing PC3 cells against unstained cells
T2 construct: whole, on cells; also called hDPP-IV-expressing cells; hDPP-IV-positive cell lines
T2 sequence (P27487 whole entry): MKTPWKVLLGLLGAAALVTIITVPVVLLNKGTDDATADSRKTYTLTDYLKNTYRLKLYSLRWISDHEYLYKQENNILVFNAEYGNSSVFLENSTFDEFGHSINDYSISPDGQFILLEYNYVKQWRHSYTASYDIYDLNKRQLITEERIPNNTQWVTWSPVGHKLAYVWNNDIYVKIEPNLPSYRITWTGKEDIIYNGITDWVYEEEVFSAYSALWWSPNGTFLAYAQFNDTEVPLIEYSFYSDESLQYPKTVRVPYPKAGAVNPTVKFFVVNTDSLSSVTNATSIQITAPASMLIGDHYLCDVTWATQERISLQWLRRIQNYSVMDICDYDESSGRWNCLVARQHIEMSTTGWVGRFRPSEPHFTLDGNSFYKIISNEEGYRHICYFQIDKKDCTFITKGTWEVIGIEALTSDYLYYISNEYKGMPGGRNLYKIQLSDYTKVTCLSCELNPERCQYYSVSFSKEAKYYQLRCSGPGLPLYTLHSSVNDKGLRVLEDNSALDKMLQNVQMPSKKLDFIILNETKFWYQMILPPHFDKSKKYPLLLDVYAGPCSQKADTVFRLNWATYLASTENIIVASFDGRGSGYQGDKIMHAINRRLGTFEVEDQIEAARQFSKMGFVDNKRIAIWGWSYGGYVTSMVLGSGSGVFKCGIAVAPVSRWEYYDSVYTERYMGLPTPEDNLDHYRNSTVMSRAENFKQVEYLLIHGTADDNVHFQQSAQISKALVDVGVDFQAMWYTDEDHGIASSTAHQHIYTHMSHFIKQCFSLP

T1 sequence (P27487 29-766 limits assumed): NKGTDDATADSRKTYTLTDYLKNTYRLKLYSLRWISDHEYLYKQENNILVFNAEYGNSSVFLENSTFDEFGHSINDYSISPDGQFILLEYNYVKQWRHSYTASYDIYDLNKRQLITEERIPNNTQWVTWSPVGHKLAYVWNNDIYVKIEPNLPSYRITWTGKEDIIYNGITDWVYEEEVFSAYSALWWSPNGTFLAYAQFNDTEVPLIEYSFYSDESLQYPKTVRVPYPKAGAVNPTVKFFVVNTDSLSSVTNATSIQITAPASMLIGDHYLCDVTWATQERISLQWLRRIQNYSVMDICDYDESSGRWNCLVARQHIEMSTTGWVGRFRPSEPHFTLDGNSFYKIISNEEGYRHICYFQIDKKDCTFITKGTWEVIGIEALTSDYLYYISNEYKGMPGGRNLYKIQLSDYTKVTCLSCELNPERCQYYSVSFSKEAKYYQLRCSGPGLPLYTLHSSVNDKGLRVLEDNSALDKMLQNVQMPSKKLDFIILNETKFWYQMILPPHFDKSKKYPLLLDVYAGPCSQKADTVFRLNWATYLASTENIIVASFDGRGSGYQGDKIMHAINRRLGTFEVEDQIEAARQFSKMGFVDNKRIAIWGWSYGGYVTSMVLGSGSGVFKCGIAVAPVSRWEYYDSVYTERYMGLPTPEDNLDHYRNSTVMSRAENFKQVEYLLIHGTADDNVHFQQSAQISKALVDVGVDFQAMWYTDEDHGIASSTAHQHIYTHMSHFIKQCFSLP

binding result [1]: no binding (tested: 500 nM) | binding result [2]: no binding (tested: 100 nM)
B1: B12 IgG (chimeric anti-FAP monoclonal antibody: murine B12 variable domains in a full-length human IgG) (antibody, V domains shown)
VH: EVMLVESGGGLVQPGGSLKLSCAASGFTFSSYGMSWVRQTPDKRLELVATINSNGGSTYYPDSVKGRFTISRDNAKNTLYLQMSSLKSEDTAMYYCARDYFDYWGQGTTLTVSS
VL: DIVITQSPSSLSASLGERVSLTCRASQEISGYLSWLQQKPDGTIKLIYAASTLDSGVPKRFSGSRSGSDYSLTISSLESEDFADYYCLQYASYPWTFGGGTKLEIKR
notes: They were cloned into pFUSEss human IgG expression vectors (Invivogen) and expressed in HEK293T cells; capture was detected with an anti-human IgG1 secondary and the isotype control is human IgG1; also called anti-FAP mAb; aFAP
